No end group written: not given here. *: point of attachment. Biotin = O=C1N[C@H]2[C@H](CS[C@H]2CCCCC(=O)*)N1
Molecular target: T1, full length SARS-CoV-2 spike protein (SARS-CoV-2, UniProt P0DTC2)
T1 construct: source: bought: ACROBiosystems
Assay: SPR
Conditions: both partners purified

Q: How did the Kd turn out when Biotin-MYCVFNRNEDACRYG (cysteine pairing not given here) [cellugyrin Inner loop 1A peptide] was run?
A: 4.53 mM
